Consider 30 sequences from the supplement of paper PMC9170038.

This data set relates to MS2 coat protein. The data set can be described thus: apparent KD of MS2 coat protein; designed switch direction (-1 OFF switch, 1 ON switch): -1; higher = weaker reporter binding. A digest of the protocol:
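Designed RNA switches with common flanks were made on Illumina chips by stalled E. coli RNA polymerase. Titration with SNAP-549-labelled MS2 coat protein doubled from 0.7 or 1.5 nM up to 3 µM. Apparent KD is each design's median over clusters after curve-fitting normalised fluorescence.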

[1] abbreviates: Eterna round: R95, input ligand: FMN 200 uM.
Where [2] appears, read: Eterna round: R95, input ligand: microRNA oligo, concentration not stated.
[3] abbreviates: Eterna round: R95, input ligand: none.
Where [4] appears, read: input ligand: microRNA oligo, concentration not stated.

Take “UGUACUAACACGUAAGUGUUAGUACUAUAAGCUUGUGUUACAUGAGGAUCACCCAUGUCCUCAUAAGCUCGUCUUAA [Mat - Sensor v3 - Turn-off var 2 - D72] (puzzle: Sensor v3, turn-off variant 2)”: the “apparent KD of MS2 coat protein” value under setting [1] is 39.7 nM, the “apparent KD of MS2 coat protein” value under setting [2] amounted to 182 nM and the “apparent KD of MS2 coat protein” value under setting [3] was 37.2 nM.
For “UGUAGGUCUACCUUGGUGGAUCUGCAUUUUUGCAGGUGUACAUGAGGAUCACCCAUGUCCUCAUUUGCUCGUCUUAU [JL turnoff v2 99.31] (puzzle: Sensor v3, turn-off variant 2)”, the “apparent KD of MS2 coat protein” value runs as follows: under setting [1], 467 nM; under setting [2], 560 nM; under setting [3], 542 nM.
Take “UGUCUCCUCGUCAGGAUAUUUCGUUGUGCAGACUGAAAGAAGGGACAUGAGGAUCACCCAUGUACCUCGUCGGU [Eternabot (L2) Solution 98] (Eterna round: R97, puzzle: Brourd's mod of Exclusion 4)”: the “apparent KD of MS2 coat protein” value (input ligand: FMN 200 uM) stood at 22.3 nM and the “apparent KD of MS2 coat protein” value (input ligand: none) came to 16.9 nM.
Regarding “UGUGCGUAUGUGAGGAUAUGCUGGUCCUUGGAUCAGCAGAAGGCACAUGAGGAUCACCCAUGUGGUGUCGUACU [salish99_Bmod_Ex4_009] (puzzle: Brourd's mod of Exclusion 4)”, under setting [2], the “apparent KD of MS2 coat protein” value was found to be 202 nM.
Take “UGUGCGUAUGUGAGGAUAUGCUGGUCCUUGGCUCGGCAGAAGGCACAUGAGGAUCACCCAUGUGGUGUCGUACA [salish99_Bmod_ex4_071] (puzzle: Brourd's mod of Exclusion 4)”: the “apparent KD of MS2 coat protein” value under setting [2] came to 158 nM.
On to “UGUGUGAGACAGGAUAUGCUGGAUGUGUGGCGGGUAGAAGGGUCUACAUGAGGAUCACCCAUGUGGCCGGUUGG [Ex6 #69] (Eterna round: R97, puzzle: Exclusion 6)”, for which the “apparent KD of MS2 coat protein” value (input ligand: FMN 200 uM) is 15.8 nM and the “apparent KD of MS2 coat protein” value (input ligand: none) is 18.9 nM.
“UGUUGUCGCGCAGGAUAUUGUCAACAGGCAGUAGGAUAUCCGAAAGGAGAAGGACCGCCAACAGGCGAGAAGGGCGGGACAACU [pwkr exNG2 2xF7 2xFMN.9] (Eterna round: R96, puzzle: Exclusion NG 2)”: the “apparent KD of MS2 coat protein” value (input ligand: FMN 200 uM) stood at 32.1 nM, the “apparent KD of MS2 coat protein” value under setting [4] is 35.7 nM and the “apparent KD of MS2 coat protein” value (input ligand: none) came out at 16 nM.
Taken in the same sequence, the figures for “UGUUGUCGCGUAGGAUAUGUAUGAGGAUCACCCAUAAGAGUAUAUUUACCAUGAGGAUCACCCAUGUAGAAGGACGGGACAACU [pwkr exNG2 2xF5 1xFMN.12] (Eterna round: R96, puzzle: Exclusion NG 2)” were 232 nM, 75.6 nM and 127 nM.
As to “UGUUGUUACGCAGGAUAUGAGGAUCACCCAUAUUAGGAUAUCGAAAGAGAAGUUCUGAGGAUCACCCAGAAGGGCGGGUUAACA [pwkr exNG2 2xF5 2xFMN.35] (Eterna round: R96, puzzle: Exclusion NG 2)”, the “apparent KD of MS2 coat protein” value (input ligand: FMN 200 uM) amounted to 117 nM, the “apparent KD of MS2 coat protein” value under setting [4] was found to be 37.8 nM and the “apparent KD of MS2 coat protein” value (input ligand: none) stood at 53.2 nM.
The matching figures for “UGUUGUUACGUAGGAUAUCCACCAACAGGUGGAAGGAUAUGUACGCAGAAGGUUCGCCAACAGGCGGAGAAGGACGGGUUAACA [pwkr exNG2 2xF7 2xFMN.27] (Eterna round: R96, puzzle: Exclusion NG 2)”: 1370 nM, 473 nM and 300 nM.
With “UGUUGUUCAGGAUAUGAUGUAUAAUACAUGAGGAUCACCCAUGUAGAUCCUGCUUUGGCGUCAGAAGGGAAUGUUG [salish99_ex5_r4_107] (Eterna round: R97, puzzle: Exclusion 5)”, the “apparent KD of MS2 coat protein” value reads like this: (input ligand: FMN 200 uM) 55.9 nM; (input ligand: none) 51.8 nM.
“UGUUGUUGAUAGGAUAUACAGGUAGGAGUAGGAGUAGAAGGAUCUACAUGAGGAUCACCCAUGUAGGAGUGAGA [JR_E6_Sub002] (puzzle: Exclusion 6)”: the “apparent KD of MS2 coat protein” value under setting [2] stood at 14.9 nM.
On to “UGUUUAUAUGAAGGAUAUACUUAACAUGAGGAUCACCCAUGUGGUGUUGUGAGUGAGUGAGUUUAGUAGAAGGUCAAUUCUUUU [JMF's solution 97] (Eterna round: R96, puzzle: Exclusion NG 2)”, for which the “apparent KD of MS2 coat protein” value came out at 996 nM (input ligand: FMN 200 uM), 553 nM under setting [4] and 425 nM (input ligand: none).
The matching figures for “UUAAAUCAUGUAGGAUAUGCAAGGCGAACCUAUGCAGAAGGACAUGAGGAUCACCCAUGUGCUGCGGUCUGCGUACAGAUCGCU [JL ENG1 1.02] (Eterna round: R96, puzzle: Exclusion NG 1)”: 503 nM, 30.7 nM and 39 nM.
Taken in the same sequence, the figures for “UUAAAUCAUGUAGGAUAUGCAUAGCAAAGCUAUGCAGAAGGACAUGAGGAUCACCCAUGUGCUUGCGUCCGCGUACGGAUGCUA [Mat - Exclusion NG 1 - Mod of JL - D68] (Eterna round: R96, puzzle: Exclusion NG 1)” were 733 nM, 90.5 nM and 138 nM.
On to “UUAAAUCAUGUAGGAUAUGCGUGGAGAAGCUAUGCAGAAGGACAUGAGGAUCACCCAUGUGCUUCCGUCUGAGAACAGACGGUA [Mat - Exclusion NG 1 - Mod of JL - D13] (Eterna round: R96, puzzle: Exclusion NG 1)”, for which the “apparent KD of MS2 coat protein” value came out at 210 nM (input ligand: FMN 200 uM), 49.9 nM under setting [4] and 45.7 nM (input ligand: none).
The matching figures for “UUAAAUCAUGUAGGAUAUGCGUGGCGAAGCUAUGCAGAAGGACAUGAGGAUCACCCAUGUGCUAGCGUCUGCGUACAGAUGCAA [JL ENG1 1.11] (Eterna round: R96, puzzle: Exclusion NG 1)”: 189 nM, 65.2 nM and 76.7 nM.
As to “UUAACAUGCUGGUGAUCAUACAUGAGGAUCACCCAUGUAACAAGCUUUUUGCUCGUCUUAUAAGAUUACUAGUAUGU [Stov1/10-A1] (Eterna round: R97, puzzle: Sensor, turn-off variant 1)”, the “apparent KD of MS2 coat protein” value (input ligand: FMN 200 uM) came out at 24.2 nM and the “apparent KD of MS2 coat protein” value (input ligand: none) is 26.4 nM.
“UUAACCAGAGGAUAUGCGAAUAAAUAAAACUUUUUUUUUUAACAUGAGGAUCACCCAUGUAGAAGGCUGCAAUU [Ex2 #31] (Eterna round: R97, puzzle: Exclusion 2)”: the “apparent KD of MS2 coat protein” value is, setting by setting: (input ligand: FMN 200 uM) 32 nM; (input ligand: none) 46.8 nM.
Turning to “UUAAGUAUAGAGGAUAUAUAAUAUUUAUUAACUAUAGAAGGCUAUACAUGAGGAUCACCCAUGUAUAUUGGGAU [JR_Ex6_Sub067] (Eterna round: R97, puzzle: Exclusion 6)”, the “apparent KD of MS2 coat protein” value amounted to 59.1 nM (input ligand: FMN 200 uM) and 41 nM (input ligand: none).
Taken in the same sequence, the figures for “UUAAUGGCUGUGAGGAUAUCGGAUAGAUAGAUAUUCGAGAAGGCACAUGAGGAUCACCCAUGUGUGAUCAGAGA [Brourd's EX4 #62] (Eterna round: R97, puzzle: Brourd's mod of Exclusion 4)” were 466 nM and 144 nM.
Taken in the same sequence, the figures for “UUAAUGGUUGUGAGGAUAUCGGAUAGAUAGAUAUUCGAGAAGGCACAUGAGGAUCACCCAUGUGUGAUCAGAAA [Brourd's EX4 #61] (Eterna round: R97, puzzle: Brourd's mod of Exclusion 4)” were 410 nM and 202 nM.
As to “UUAAUUAAUUAAUUAGAUCCUCACAUGAGGAUCACCCAUGUGCAGGAUAUCAGCUCGAUUAGAGCUGAGAAGGGCACUAUUAAU [ExNG3/10-B4] (Eterna round: R96, puzzle: Exclusion NG 3)”, the “apparent KD of MS2 coat protein” value (input ligand: FMN 200 uM) came to 56.1 nM, the “apparent KD of MS2 coat protein” value under setting [4] was 85 nM and the “apparent KD of MS2 coat protein” value (input ligand: none) amounted to 127 nM.
Taken in the same sequence, the figures for “UUAAUUAAUUUAUUAGAUCCUCACAUGAGGAUCACCCAUGUGCAGGAUAUCAGCUCGUGUAGAGCUGAGAAGGGCACUAUAAAU [ExNG3/10-B3] (Eterna round: R96, puzzle: Exclusion NG 3)” were 29.8 nM, 61.5 nM and 116 nM.
Turning to “UUACUGUGAGGAUAUUACAUUUAGCGGCUAGCAACUAGGGAUAAGAAGGCACAUGAGGAUCACCCAUGUCCCGU [Eternabot (L1) Solution 35] (Eterna round: R97, puzzle: Exclusion 4)”, the “apparent KD of MS2 coat protein” value by setting is: (input ligand: FMN 200 uM) 95.7 nM; (input ligand: none) 21.5 nM.
Consider “UUAGAUUAUUGAGGAUAUGGAUCUUAUUAUUAACCAGAAGGCAAACUCAACAUGAGGAUCACCCAUGUAUAAAGGGUAUUAGUU [JR_ExcNG1_Sub099] (Eterna round: R96, puzzle: Exclusion NG 1)”, for which the “apparent KD of MS2 coat protein” value under setting [4] amounted to 62.8 nM.
“UUAGUGUAAGGAUAUGCAAACCACGGAAAUAAAACGUGGAGGUAGAAGGUACAUGAGGAUCACCCAUGUUAAAC [Mod of Anonveat 25 - Jieux - Exclusion 4] (Eterna round: R97, puzzle: Exclusion 4)”: the “apparent KD of MS2 coat protein” value reads like this: (input ligand: FMN 200 uM) 34 nM; (input ligand: none) 20.2 nM.
“UUAGUGUGAGGAUAUGGUAAAGAUAAGAUGAUGAAAGAACUCCAGAAGGCACAUGAGGAUCACCCAUGUAGAUG [JL-ex4-2.13 Jieux mod] (puzzle: Exclusion 4)”: the “apparent KD of MS2 coat protein” value under setting [1] is 67.4 nM, the “apparent KD of MS2 coat protein” value under setting [2] was found to be 35.4 nM and the “apparent KD of MS2 coat protein” value under setting [3] was 30.6 nM.
As for “UUAUACGCUGAGGAUAUCUUCACUGAGAGGUGAAGAGAAGGCGGUACAUGAGGAUCACCCAUGUCUAUGGGCAG [Ex-6 Malc#20] (puzzle: Exclusion 6)”, the “apparent KD of MS2 coat protein” value under setting [1] was determined as 376 nM, the “apparent KD of MS2 coat protein” value under setting [2] came to 312 nM and the “apparent KD of MS2 coat protein” value under setting [3] came to 479 nM.
For “UUAUACGUUGAGGAUAUGUCAUUUAGUAUAGUUACAGAAGGCGAUACAUGAGGAUCACCCAUGUUUAUGGGCAU [Ex-6 Malc#2] (puzzle: Exclusion 6)”, under setting [2], the “apparent KD of MS2 coat protein” value was found to be 166 nM.
